Assay results published in patent publication US6524826B1, “Polynucleotides encoding cortistatin polypeptides” (Human Genome Sciences, Inc., priority 1996, dated 2003).

What was measured:
CA1 neuron = experiment: action potential firing of a manually depolarized CA1 neuron; assay type: cell-based; settings: superfusion by 1 μM; CA1 neuron depolarized to about −65 mV
Text: (§1) For example, one can measure Cortistatin activity by manually depolarizing a CA1 neuron to about −65 mV (resting potential at about −70 mV) to elicit action potential firing. […] One can measure Population Spike (PS) amplitudes in CA1 neurons in vivo, by generating stimulus response curves and relating the PS amplitude monotonically to stimulus intensity tested at three response levels: threshold, half-maximal, and maximal. […] Another assay for polypeptides having Cortistatin activity is the effect of intracerebroventricular administration to male Sprague—Dawley rats, anesthetized with halothane, of the polypeptide in question on the sleep—wake cycle of the rat. An active polypeptide would increase the period of slow wave sleep and decrease REM sleep.

CA1 neurons = experiment: Population Spike (PS) amplitudes in CA1 neurons in vivo; settings: microiontophoretic application of 1 mg ml^−1
Text: as §1

B1: Human Cortistatin: Human Cortistatin polypeptide, brain neuropeptide; mature protein amino acid residues about 1 to about 86 in SEQ ID NO:2 (protein)
chain: MPLSPGLLLLLLSGATATAALPLEGGPTGRDSEHMQEAAGIRKSSLLTFLAWWFEWTSQASAGPLIGEEAREVARRQEGAPPQQSA
modifications: Human Cortistatin
- action potential discharge (CA1 neuron): abolish the action potential discharge
- PS amplitudes in CA1 (CA1 neurons): significantly decrease PS amplitudes
